First the molecules themselves.
B1: 259 (protein)
chain: LDNGLARTPTMGWLHWERFMCNLDCQEEPDSCISEKLFMEMAELMVSEGWKDAGYEYLCIDDCWMAPQRDSEGRLQADPQRFPHGIRQLANYVHSKGLKFGIYADVGNKTCAGFPGSFGYYDIDAQTFADWGVDLLKFDGCYCDSLENLADGYKHMSLALNRTGRSIVYSCEWPLYMWPFQKPNYTEIRQYCNHWRNFADIDDSWASIKSILDWTSFNQERIVDVAGPGGWNDPDMLVIGNFGLSWNQQVTQMALWAIMAAPLFMSNDLRHISPQAKALLQDKDVIAINQDPLGKQGYQLRQGDNFEVWERPLSGLAWAVAVINRQEIGGPRSYTIAVASLGKGVACNPACFITQLLPVKRKLGLYEWTSRLKSHVNPTGTVLLQLENTMQMSLKDLL
modifications: Synthetic Polypeptide sequence of Variant No. 259 of mature Human GLA
B2: 260 (protein)
chain: B1 chain with N247D, V322M
modifications: Synthetic Polypeptide sequence of Variant No. 260 of mature Human GLA
B3: 266 (protein)
chain: B1 chain with R221T, V322I, K343E, V376I
modifications: Synthetic Polypeptide sequence of Variant No. 266 of mature Human GLA
B4: 268 (protein)
chain: B1 chain with V322M, L365F
modifications: Synthetic Polypeptide sequence of Variant No. 268 of mature Human GLA
B5: 264 (protein)
chain: B1 chain with R221K, N247D, Q302K, K343D, L365F
modifications: Synthetic Polypeptide sequence of Variant No. 264 of mature Human GLA
B6: 267 (protein)
chain: B1 chain with R221T, N247D, Q302K, V322M, K343D, V376I
modifications: Synthetic Polypeptide sequence of Variant No. 267 of mature Human GLA
B7: 269 (protein)
chain: B1 chain with L37I, F100L, R221K, N247D, V322I, L365F, V376I
modifications: Synthetic Polypeptide sequence of Variant No. 269 of mature Human GLA
B8: 261 (protein)
chain: B1 chain with R221K, N247D, K343D, L365F, K373R
modifications: Synthetic Polypeptide sequence of Variant No. 261 of mature Human GLA
B9: 262 (protein)
chain: B1 chain with R221K, N247D, Q302K
modifications: Synthetic Polypeptide sequence of Variant No. 262 of mature Human GLA
B10: 270 (protein)
chain: B1 chain with L44R, F100L, C143Y, V322M, A337P, A350G, L365F, K373R, V376I
modifications: Synthetic Polypeptide sequence of Variant No. 270 of mature Human GLA
B11: 265 (protein)
chain: B1 chain with R221K, V322M, L365F
modifications: Synthetic Polypeptide sequence of Variant No. 265 of mature Human GLA
B12: 263 (protein)
chain: B1 chain with R221K, N247D, Q302K, L365F, K373R
modifications: Synthetic Polypeptide sequence of Variant No. 263 of mature Human GLA

Numbering of substitutions follows the chain as printed.

One series can be described thus: HTP-analysis of supernatants pretreated with acid (MUGal hydrolysis). It counts as biochemical. Particulars: challenge at pH 4.2; activity of the variant/activity of Rd2BB (SEQ ID NO: 10); yeast culture supernatant. In a few lines:
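Supernatants from INVSc1 yeast secreting GLA variants were challenged at 37° C. for 1-3 h in McIlvaine buffer at pH 3.3-4.3. Residual activity was then measured on 4 mM MUGal substrate stock at pH 4.8 with citrate buffer pH 4.3, over 30-180 min at 37° C. Reactions were quenched with sodium carbonate and read by fluorescence (Ex 355/Em 448 nm).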
As for B1, the “Relative Activity of GLA Variants After Challenge at pH 4.2” value is on record as “+ (+ = 0.5 to 1.5 relative activity over Rd2BB (SEQ ID NO: 10))”.
The same measure, in the same setting: the same measure for B2: “+ (+ = 0.5 to 1.5 relative activity over Rd2BB (SEQ ID NO: 10))”.
Same read-out and setting: the same measure for B3: “++ (++ = 1.5 to 2.5 relative activity over Rd2BB (SEQ ID NO: 10))”.
Still for that read-out and setting: then B4, with “+ (+ = 0.5 to 1.5 relative activity over Rd2BB (SEQ ID NO: 10))”; and B5, with “++ (++ = 1.5 to 2.5 relative activity over Rd2BB (SEQ ID NO: 10))”.
For B6, the “Relative Activity of GLA Variants After Challenge at pH 4.2” value was “+++ (+++ = >2.5 relative activity over Rd2BB (SEQ ID NO: 10))”.
The same measure, in the same setting: the same measure for B7: “+ (+ = 0.5 to 1.5 relative activity over Rd2BB (SEQ ID NO: 10))”; for B8: “++ (++ = 1.5 to 2.5 relative activity over Rd2BB (SEQ ID NO: 10))”.
Still for that read-out and setting: the same measure for B9: “+++ (+++ = >2.5 relative activity over Rd2BB (SEQ ID NO: 10))”; for B10: “+ (+ = 0.5 to 1.5 relative activity over Rd2BB (SEQ ID NO: 10))”; for B11: “+ (+ = 0.5 to 1.5 relative activity over Rd2BB (SEQ ID NO: 10))”.
Same read-out and setting: the same measure for B12: “++ (++ = 1.5 to 2.5 relative activity over Rd2BB (SEQ ID NO: 10))”.

A further series in a line: HTP-analysis of yeast culture supernatants, no challenge (MUGal hydrolysis). Particulars: activity of the variant/activity of Rd2BB (SEQ ID NO: 10), yeast culture supernatant. The format is biochemical. In a few lines: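 Activity read as 4-methylumbelliferyl α-D-galactopyranoside hydrolysis: fluorescence (355/448 nm) after sodium carbonate stop, following 30-180 min at 37° C with 2 mM MUGal stock at pH 4.6–4.8. Enzyme source is unchallenged culture supernatant of INVSc1 yeast expressing GLA variants, grown 66-84 h at 30° C.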
With B1, the “Relative Activity of GLA Variants After No Challenge (NC)” value is “+ (+ = 0.5 to 1.5 relative activity over Rd2BB (SEQ ID NO: 10))”.
Still for that read-out and setting: the same measure for B2: “+ (+ = 0.5 to 1.5 relative activity over Rd2BB (SEQ ID NO: 10))”.
B3: the “Relative Activity of GLA Variants After No Challenge (NC)” value is recorded as “++ (++ = 1.5 to 2.5 relative activity over Rd2BB (SEQ ID NO: 10))”.
Turning to B4, the “Relative Activity of GLA Variants After No Challenge (NC)” value was “+ (+ = 0.5 to 1.5 relative activity over Rd2BB (SEQ ID NO: 10))”.
Same read-out and setting: then B5, with “++ (++ = 1.5 to 2.5 relative activity over Rd2BB (SEQ ID NO: 10))”; and B6, with “+++ (+++ = >2.5 relative activity over Rd2BB (SEQ ID NO: 10))”.
Same read-out and setting: the same measure for B7: “− (− = <0.5 relative activity over Rd2BB (SEQ ID NO: 10))”.
Same read-out and setting: then B8, with “++ (++ = 1.5 to 2.5 relative activity over Rd2BB (SEQ ID NO: 10))”.
In the case of B9, the “Relative Activity of GLA Variants After No Challenge (NC)” value is listed as “++ (++ = 1.5 to 2.5 relative activity over Rd2BB (SEQ ID NO: 10))”.
On the same count and under the same terms, then B10, with “+ (+ = 0.5 to 1.5 relative activity over Rd2BB (SEQ ID NO: 10))”; and B11, with “+ (+ = 0.5 to 1.5 relative activity over Rd2BB (SEQ ID NO: 10))”.
B12: the “Relative Activity of GLA Variants After No Challenge (NC)” value is “+ (+ = 0.5 to 1.5 relative activity over Rd2BB (SEQ ID NO: 10))”.

A further series in a line: HTP-analysis of supernatants pretreated with bovine serum (MUGal hydrolysis). It counts as biochemical. Particulars: activity of the variant/activity of Rd2BB (SEQ ID NO: 10), yeast culture supernatant. In a few lines: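 Yeast INVSc1 culture supernatants containing secreted GLA variants were mixed with bovine serum (20:80) and held 1 h at 37° C. Serum-treated samples then reacted with MUGal (4 mM stock) in citrate/McIlvaine buffer (pH 4.3/4.8) for 180 min at 37° C., were quenched with sodium carbonate, and read by fluorescence (Ex 355, Em 448 nm).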
For B1, the “Relative Activity of GLA Variants After Challenge with Serum” value (“Relative Activity … with Serum” below) is reported as “+ (+ = 0.5 to 1.5 relative activity over Rd2BB (SEQ ID NO: 10))”.
The same measure, in the same setting: the same measure for B2: “+ (+ = 0.5 to 1.5 relative activity over Rd2BB (SEQ ID NO: 10))”; for B3: “++ (++ = 1.5 to 2.5 relative activity over Rd2BB (SEQ ID NO: 10))”.
Still for that read-out and setting: the same measure for B4: “+ (+ = 0.5 to 1.5 relative activity over Rd2BB (SEQ ID NO: 10))”; for B5: “++ (++ = 1.5 to 2.5 relative activity over Rd2BB (SEQ ID NO: 10))”.
Still for that read-out and setting: then B6, with “+++ (+++ = >2.5 relative activity over Rd2BB (SEQ ID NO: 10))”; and B7, with “+ (+ = 0.5 to 1.5 relative activity over Rd2BB (SEQ ID NO: 10))”; and B8, with “+ (+ = 0.5 to 1.5 relative activity over Rd2BB (SEQ ID NO: 10))”.
Turning to B9, the “Relative Activity … with Serum” value is given as “+++ (+++ = >2.5 relative activity over Rd2BB (SEQ ID NO: 10))”.
Turning to B10, the “Relative Activity … with Serum” value was “+ (+ = 0.5 to 1.5 relative activity over Rd2BB (SEQ ID NO: 10))”.
Same read-out and setting: then B11, with “+ (+ = 0.5 to 1.5 relative activity over Rd2BB (SEQ ID NO: 10))”; and B12, with “+++ (+++ = >2.5 relative activity over Rd2BB (SEQ ID NO: 10))”.

A short description of a further series: HTP-analysis of supernatants pretreated with base (MUGal hydrolysis). The following applies: challenge at pH 7.6; activity of the variant/activity of Rd2BB (SEQ ID NO: 10); yeast culture supernatant. It counts as biochemical. In a few lines:
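GLA variants secreted from yeast INVSc1; culture supernatants pre-incubated with McIlvaine buffer pH 7.0–8.2 or 200 mM bicarbonate pH 9.1–9.7 at 37° C. for 1–18 h. Residual activity: MUGal (4 mM stock) hydrolysis at pH 4.3–4.8, 37° C., 30–180 min, carbonate quench; fluorescence Ex 355/Em 448 nm.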
In the case of B1, the “Relative Activity of GLA Variants After Challenge at pH 7.6” value (from here on “Relative Activity … at pH 7.6”) is given as “+ (+ = 0.5 to 1.5 relative activity over Rd2BB (SEQ ID NO: 10))”.
Still for that read-out and setting: then B2, with “+ (+ = 0.5 to 1.5 relative activity over Rd2BB (SEQ ID NO: 10))”; and B3, with “+++ (+++ = >2.5 relative activity over Rd2BB (SEQ ID NO: 10))”.
The same measure, in the same setting: then B4, with “+ (+ = 0.5 to 1.5 relative activity over Rd2BB (SEQ ID NO: 10))”; and B5, with “+++ (+++ = >2.5 relative activity over Rd2BB (SEQ ID NO: 10))”.
Same read-out and setting: the same measure for B6: “+++ (+++ = >2.5 relative activity over Rd2BB (SEQ ID NO: 10))”; for B7: “+ (+ = 0.5 to 1.5 relative activity over Rd2BB (SEQ ID NO: 10))”; for B8: “++ (++ = 1.5 to 2.5 relative activity over Rd2BB (SEQ ID NO: 10))”.
On to B9, for which the “Relative Activity … at pH 7.6” value is on record as “+++ (+++ = >2.5 relative activity over Rd2BB (SEQ ID NO: 10))”.
For B10, the “Relative Activity … at pH 7.6” value is on record as “+ (+ = 0.5 to 1.5 relative activity over Rd2BB (SEQ ID NO: 10))”.
Same read-out and setting: the same measure for B11: “+ (+ = 0.5 to 1.5 relative activity over Rd2BB (SEQ ID NO: 10))”; for B12: “++ (++ = 1.5 to 2.5 relative activity over Rd2BB (SEQ ID NO: 10))”.

These data come from US11278600B2, “Human alpha-galactosidase variants” (Codexis, Inc., priority 2014, dated 2022).
